According to the supplement of paper PMC10567573:

B1: HNF4A (parent)
chain: RFSRQCVVDKDKRNQCRYCRLKKC
B2: C10orf62 (parent)
chain: MLWVQRKRRRKETSECPSDKDKSP

Variants of: B1
Experiment: protein stability index of a GFP-peptide fusion (GPS, HEK-293T) (PSI 1-6); higher = more stable
Settings: c terminus: a fixed tail appended
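Further: lentivirally expressed fusions sorted by FACS into six bins by GFP to DsRed ratio, PSI derived from sequencing read proportions per bin multiplied by bin number.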

Variant	protein stability index
RFSRQCVVDKDKRNQNRYCRLKKC [C16N]	3.31
RFSRQCVVDKDKRNQPRYCRLKKC [C16P]	3.58
RFSRQCVVDKDKRNQQRYCRLKKC [C16Q]	3.38
RFSRQCVVDKDKRNQRRYCRLKKC [C16R]	4.33
RFSRQCVVDKDKRNQSRYCRLKKC [C16S]	3.52
RFSRQCVVDKDKRNQTRYCRLKKC [C16T]	3.56
RFSRQCVVDKDKRNQVRYCRLKKC [C16V]	3.33
RFSRQCVVDKDKRNQWRYCRLKKC [C16W]	3.37
RFSRQCVVDKDKRNQYRYCRLKKC [C16Y]	3.48
RFSRQCVVDKDKRNQCAYCRLKKC [R17A]	2.77
RFSRQCVVDKDKRNQCCYCRLKKC [R17C]	2.29
RFSRQCVVDKDKRNQCDYCRLKKC [R17D]	3.29
RFSRQCVVDKDKRNQCEYCRLKKC [R17E]	3.78
RFSRQCVVDKDKRNQCFYCRLKKC [R17F]	2.57
RFSRQCVVDKDKRNQCGYCRLKKC [R17G]	3.16
RFSRQCVVDKDKRNQCHYCRLKKC [R17H]	2.83
RFSRQCVVDKDKRNQCIYCRLKKC [R17I]	2.9
RFSRQCVVDKDKRNQCKYCRLKKC [R17K]	2.54
RFSRQCVVDKDKRNQCLYCRLKKC [R17L]	1.84
RFSRQCVVDKDKRNQCMYCRLKKC [R17M]	2.79
RFSRQCVVDKDKRNQCNYCRLKKC [R17N]	3.45
RFSRQCVVDKDKRNQCPYCRLKKC [R17P]	2.9
RFSRQCVVDKDKRNQCQYCRLKKC [R17Q]	3.42
RFSRQCVVDKDKRNQCSYCRLKKC [R17S]	2.4
RFSRQCVVDKDKRNQCTYCRLKKC [R17T]	2.69

Variant	protein stability index
RFSRQCVVDKDKRNQCVYCRLKKC [R17V]	2.21
RFSRQCVVDKDKRNQCWYCRLKKC [R17W]	2.42
RFSRQCVVDKDKRNQCYYCRLKKC [R17Y]	2.21
RFSRQCVVDKDKRNQCRACRLKKC [Y18A]	2.2
RFSRQCVVDKDKRNQCRCCRLKKC [Y18C]	3.61
RFSRQCVVDKDKRNQCRECRLKKC [Y18E]	3.41
RFSRQCVVDKDKRNQCRFCRLKKC [Y18F]	2.63
RFSRQCVVDKDKRNQCRGCRLKKC [Y18G]	3.04
RFSRQCVVDKDKRNQCRHCRLKKC [Y18H]	3.64
RFSRQCVVDKDKRNQCRICRLKKC [Y18I]	3.54
RFSRQCVVDKDKRNQCRKCRLKKC [Y18K]	3.73
RFSRQCVVDKDKRNQCRLCRLKKC [Y18L]	2.19
RFSRQCVVDKDKRNQCRMCRLKKC [Y18M]	3.13
RFSRQCVVDKDKRNQCRNCRLKKC [Y18N]	3.78
RFSRQCVVDKDKRNQCRPCRLKKC [Y18P]	3
RFSRQCVVDKDKRNQCRQCRLKKC [Y18Q]	3.54
RFSRQCVVDKDKRNQCRRCRLKKC [Y18R]	3.36
RFSRQCVVDKDKRNQCRSCRLKKC [Y18S]	3.69
RFSRQCVVDKDKRNQCRTCRLKKC [Y18T]	3.2
RFSRQCVVDKDKRNQCRYARLKKC [C19A]	3.07
RFSRQCVVDKDKRNQCRYDRLKKC [C19D]	4.09
RFSRQCVVDKDKRNQCRYFRLKKC [C19F]	2.39
RFSRQCVVDKDKRNQCRYGRLKKC [C19G]	3.04
RFSRQCVVDKDKRNQCRYHRLKKC [C19H]	3.07
RFSRQCVVDKDKRNQCRYIRLKKC [C19I]	2.03

Variant	protein stability index
RFSRQCVVDKDKRNQCRYLRLKKC [C19L]	3.07
RFSRQCVVDKDKRNQCRYMRLKKC [C19M]	3.08
RFSRQCVVDKDKRNQCRYNRLKKC [C19N]	3.71
RFSRQCVVDKDKRNQCRYPRLKKC [C19P]	3.13
RFSRQCVVDKDKRNQCRYQRLKKC [C19Q]	3.73
RFSRQCVVDKDKRNQCRYRRLKKC [C19R]	3.37
RFSRQCVVDKDKRNQCRYSRLKKC [C19S]	3.65
RFSRQCVVDKDKRNQCRYTRLKKC [C19T]	2.99
RFSRQCVVDKDKRNQCRYVRLKKC [C19V]	2.95
RFSRQCVVDKDKRNQCRYWRLKKC [C19W]	2.46
RFSRQCVVDKDKRNQCRYCALKKC [R20A]	2.96
RFSRQCVVDKDKRNQCRYCCLKKC [R20C]	2.24
RFSRQCVVDKDKRNQCRYCDLKKC [R20D]	3
RFSRQCVVDKDKRNQCRYCELKKC [R20E]	2.84
RFSRQCVVDKDKRNQCRYCFLKKC [R20F]	2.12
RFSRQCVVDKDKRNQCRYCGLKKC [R20G]	3.23
RFSRQCVVDKDKRNQCRYCHLKKC [R20H]	1.58
RFSRQCVVDKDKRNQCRYCILKKC [R20I]	2.42
RFSRQCVVDKDKRNQCRYCKLKKC [R20K]	2.58
RFSRQCVVDKDKRNQCRYCLLKKC [R20L]	2.35
RFSRQCVVDKDKRNQCRYCMLKKC [R20M]	2.96
RFSRQCVVDKDKRNQCRYCNLKKC [R20N]	2.62
RFSRQCVVDKDKRNQCRYCPLKKC [R20P]	3.15
RFSRQCVVDKDKRNQCRYCQLKKC [R20Q]	2.98
RFSRQCVVDKDKRNQCRYCSLKKC [R20S]	2.72

Variant	protein stability index
RFSRQCVVDKDKRNQCRYCTLKKC [R20T]	2.74
RFSRQCVVDKDKRNQCRYCVLKKC [R20V]	2.56
RFSRQCVVDKDKRNQCRYCWLKKC [R20W]	1.43
RFSRQCVVDKDKRNQCRYCYLKKC [R20Y]	2.28
RFSRQCVVDKDKRNQCRYCRAKKC [L21A]	3.51
RFSRQCVVDKDKRNQCRYCRCKKC [L21C]	3.73
RFSRQCVVDKDKRNQCRYCRDKKC [L21D]	3.35
RFSRQCVVDKDKRNQCRYCREKKC [L21E]	3.08
RFSRQCVVDKDKRNQCRYCRFKKC [L21F]	2.86
RFSRQCVVDKDKRNQCRYCRGKKC [L21G]	2.94
RFSRQCVVDKDKRNQCRYCRHKKC [L21H]	3.41
RFSRQCVVDKDKRNQCRYCRIKKC [L21I]	3.22
RFSRQCVVDKDKRNQCRYCRKKKC [L21K]	4.07
RFSRQCVVDKDKRNQCRYCRMKKC [L21M]	3.61
RFSRQCVVDKDKRNQCRYCRNKKC [L21N]	3.33
RFSRQCVVDKDKRNQCRYCRPKKC [L21P]	2.94
RFSRQCVVDKDKRNQCRYCRQKKC [L21Q]	3.64
RFSRQCVVDKDKRNQCRYCRRKKC [L21R]	4.08
RFSRQCVVDKDKRNQCRYCRSKKC [L21S]	3.36
RFSRQCVVDKDKRNQCRYCRTKKC [L21T]	2.93
RFSRQCVVDKDKRNQCRYCRVKKC [L21V]	2.31
RFSRQCVVDKDKRNQCRYCRWKKC [L21W]	2.94
RFSRQCVVDKDKRNQCRYCRYKKC [L21Y]	3.01
RFSRQCVVDKDKRNQCRYCRLAKC [K22A]	2.08
RFSRQCVVDKDKRNQCRYCRLCKC [K22C]	2.66

Variant	protein stability index
RFSRQCVVDKDKRNQCRYCRLDKC [K22D]	2.13
RFSRQCVVDKDKRNQCRYCRLEKC [K22E]	1.54
RFSRQCVVDKDKRNQCRYCRLFKC [K22F]	1.8
RFSRQCVVDKDKRNQCRYCRLGKC [K22G]	2.27
RFSRQCVVDKDKRNQCRYCRLHKC [K22H]	1.71
RFSRQCVVDKDKRNQCRYCRLIKC [K22I]	1.73
RFSRQCVVDKDKRNQCRYCRLLKC [K22L]	2.57
RFSRQCVVDKDKRNQCRYCRLMKC [K22M]	1.56
RFSRQCVVDKDKRNQCRYCRLPKC [K22P]	2.12
RFSRQCVVDKDKRNQCRYCRLQKC [K22Q]	1.79
RFSRQCVVDKDKRNQCRYCRLRKC [K22R]	2.9
RFSRQCVVDKDKRNQCRYCRLSKC [K22S]	2.73
RFSRQCVVDKDKRNQCRYCRLTKC [K22T]	2.13
RFSRQCVVDKDKRNQCRYCRLVKC [K22V]	1.83
RFSRQCVVDKDKRNQCRYCRLYKC [K22Y]	1.98
RFSRQCVVDKDKRNQCRYCRLKAC [K23A]	1.89
RFSRQCVVDKDKRNQCRYCRLKCC [K23C]	2.54
RFSRQCVVDKDKRNQCRYCRLKDC [K23D]	1.65
RFSRQCVVDKDKRNQCRYCRLKEC [K23E]	2.04
RFSRQCVVDKDKRNQCRYCRLKFC [K23F]	2.67
RFSRQCVVDKDKRNQCRYCRLKGC [K23G]	2.15
RFSRQCVVDKDKRNQCRYCRLKHC [K23H]	2.4
RFSRQCVVDKDKRNQCRYCRLKIC [K23I]	1.68
RFSRQCVVDKDKRNQCRYCRLKLC [K23L]	1.34
RFSRQCVVDKDKRNQCRYCRLKMC [K23M]	3.12

Variant	protein stability index
RFSRQCVVDKDKRNQCRYCRLKNC [K23N]	1.77
RFSRQCVVDKDKRNQCRYCRLKPC [K23P]	1.74
RFSRQCVVDKDKRNQCRYCRLKQC [K23Q]	2.74
RFSRQCVVDKDKRNQCRYCRLKSC [K23S]	1.41
RFSRQCVVDKDKRNQCRYCRLKTC [K23T]	2.37
RFSRQCVVDKDKRNQCRYCRLKVC [K23V]	2.04
RFSRQCVVDKDKRNQCRYCRLKWC [K23W]	2.05
RFSRQCVVDKDKRNQCRYCRLKYC [K23Y]	2.24
RFSRQCVVDKDKRNQCRYCRLKKA [C24A]	3.01
RFSRQCVVDKDKRNQCRYCRLKKE [C24E]	1.01
RFSRQCVVDKDKRNQCRYCRLKKF [C24F]	2.55
RFSRQCVVDKDKRNQCRYCRLKKG [C24G]	2.41
RFSRQCVVDKDKRNQCRYCRLKKH [C24H]	2.77
RFSRQCVVDKDKRNQCRYCRLKKI [C24I]	2.93
RFSRQCVVDKDKRNQCRYCRLKKK [C24K]	2.62
RFSRQCVVDKDKRNQCRYCRLKKL [C24L]	2.39
RFSRQCVVDKDKRNQCRYCRLKKM [C24M]	3.33
RFSRQCVVDKDKRNQCRYCRLKKN [C24N]	2.89
RFSRQCVVDKDKRNQCRYCRLKKQ [C24Q]	2.5
RFSRQCVVDKDKRNQCRYCRLKKR [C24R]	2.42
RFSRQCVVDKDKRNQCRYCRLKKS [C24S]	2.5
RFSRQCVVDKDKRNQCRYCRLKKT [C24T]	3.08
RFSRQCVVDKDKRNQCRYCRLKKV [C24V]	2.34
RFSRQCVVDKDKRNQCRYCRLKKW [C24W]	1.81
RFSRQCVVDKDKRNQCRYCRLKKY [C24Y]	2.77

Variants of: B2
Experiment: as above
Settings: c terminus: a fixed tail appended

Variant	protein stability index
MLWVQRKRRRKETSYCPSDKDKSP [E15Y]	2.76
MLWVQRKRRFKETSECPSDKDKSP [R10F]	2.33
MLWVQRKRRRKETSEHPSDKDKSP [C16H]	3.11
MLWVQRKRNRKETSECPSDKDKSP [R9N]	3.18
MLWVQRKRRRYETSECPSDKDKSP [K11Y]	2.31
MLWVQRKRRRKETSMCPSDKDKSP [E15M]	2.24
MLWVQRMRRRKETSECPSDKDKSP [K7M]	3.06
MLWVQRKRRRKETSECPTDKDKSP [S18T]	2.75
MLWVSRKRRRKETSECPSDKDKSP [Q5S]	3.85
MLWVQRWRRRKETSECPSDKDKSP [K7W]	2.49
MLWVQRKRRRKETSECPSDPDKSP [K20P]	3.19
MLWVQRKRRRKETMECPSDKDKSP [S14M]	3.31
MLWVQRKRRRKETSECPCDKDKSP [S18C]	2.77
MLWVQRKRRRKETSECPADKDKSP [S18A]	3.23
MLWVQRKRRRKGTSECPSDKDKSP [E12G]	2.49
MLWVQRKRRRKEWSECPSDKDKSP [T13W]	2.75
MLWVQRKRRRKETSECPSDKDKSG [P24G]	3.59
MLWVQRKRRTKETSECPSDKDKSP [R10T]	3.79
MLWVQRKRRRKATSECPSDKDKSP [E12A]	3.13

Variant	protein stability index
MLWVQRKRRRKETSECPSDKDKSW [P24W]	3.58
MPWVQRKRRRKETSECPSDKDKSP [L2P]	4.59
MLWVQRKRRRKETSECPSNKDKSP [D19N]	2.92
MLWVQRQRRRKETSECPSDKDKSP [K7Q]	3.74
MLWVQRKRRRKETEECPSDKDKSP [S14E]	3.2
MLHVQRKRRRKETSECPSDKDKSP [W3H]	4.31
MLWVQRKRRRKETSPCPSDKDKSP [E15P]	2.99
MLWVQRKRGRKETSECPSDKDKSP [R9G]	3.2
MLWVQRGRRRKETSECPSDKDKSP [K7G]	3.23
MLWCQRKRRRKETSECPSDKDKSP [V4C]	3.91
MAWVQRKRRRKETSECPSDKDKSP [L2A]	3.92
MLWVQRKRRSKETSECPSDKDKSP [R10S]	3.21
MLWVQRNRRRKETSECPSDKDKSP [K7N]	3.9
MLWVQRKRRRKETSECPSDKDKTP [S23T]	3.05
MLWVQRKRRRKETSECPSDRDKSP [K20R]	2.81
MKWVQRKRRRKETSECPSDKDKSP [L2K]	2.98
MLWVQRVRRRKETSECPSDKDKSP [K7V]	2.69
MLWVQRKYRRKETSECPSDKDKSP [R8Y]	3.19
MLWVQRKRDRKETSECPSDKDKSP [R9D]	3.62
